Biological target: T1, radiolabeled agitoxin2 (D20C conjugated with tritiated N-ethylmaleimide) (Leiurus quinquestriatus hebraeus, UniProt P46111 1-38)
T1 construct: mature
Experiment: filter binding assay with tritiated agitoxin2

B1: wild type kcsa K+ channel from Streptomyces lividans (other)
chain: MPPMLSGLLARLVKLLLGRHGSALHWRAAGAATVLLVIVLLAGSYLAVLAERGAPGAQLITYPRALWWSVETATTVGYGDLYPVTLWGRLVAVVVMVAGITSFGLVTAALATWFVGREQERRGHFVRHSEKAAEEAYTRTTRALHERFDRLERMLDDN
  binding result: no binding

Source: patent US20050272093A1 (ROCKEFELLER UNIVERSITY, published 2005)
